{
  "source": "paper PMC9399999",
  "about": "(Nature Communications, 2022)",
  "biological_target": "prototypic SARS-CoV-2 RBD (residues 319-541) (SARS-CoV-2, prototype (GISAID …, UniProt P0DTC2))",
  "assay": "SPR",
  "conditions": "both partners purified",
  "data": [
    {"binder": "S304 antibody (IgG1) (antibody, V domains shown, IgG1) VH: EVQLVESGGGLVQPGGSLRLSCAASGFTFSSYDMHWVRQTTGKGLEWVSTIGTAGDTYYPDSVKGRFTISREDAKNSLYLQMNSLRAGDTAVYYCARGDSSGYYYYFDYWGQGTLLTVSS VL: DIQMTQSPSSLSAAVGDRVTITCRASQSIGSYLNWYQQKPGKAPKLLIYAASSLQSGVPSRFSGSGSGTDFTLTISSLQPEDFAIYYCQQSYVSPTYTFGPGTKVDIK", "values": [
      {"measurement": "Kd", "result": 5.61, "unit": "nM"}
    ]}
  ]
}
